Measurements as given in a protein production outcome set (Wang et al. 2014).

experiment: label from the status in PepcDB records

Row | Sequence | protein production
1 | MLLTLALVILFATIMVFFSQEFIRTFKKILAIRGAKLLIPLGIASWLIYNFDYLFIWVIYYIREVLQAVLAFLTRIMPFKPYSTSIALIILLTTVSVGPVLLLDLIYRKRTYKGYAYPYLTSTLILIFCTLILLVVS | failed
2 | MLLTLPAPLRRALWAQVRRELPRECVGALGGWVRGEQVQAHALYPLPNVAADPEREYLADPGDLLRVVRAMQREGLDLVALYHSHPHGPAAPSASDRRLAAYPVPYLIADPAAEVLRAYLLPGGEEVEVRSADESNLEHHHHHH | failed
3 | MLMSEIGQIAAILATAREVAVATHIIPDGDCLGSMLGLTLALRKRGTSVIAINADPVPEMFQYLPGQETIIDPDQVTSMPPLLVMVDCTDMERAGKGFSNWQQRVEKIINIDHHVSNTRFGHLNLVDSRAAATAELIYAVLEQIPATFTPEVATCLYTALATDTGSFQYENCTARTLRLAASLLEKGADMPLIREHLWESKPLNSIRLLAATLPTLTLAYEGRVAWMTVSRAALEANGARPEHAEGLVNYPRSIAGVEVGMLFRELPDGKVKVSLRSKKIVDVNRVAALFGGGGHRRAAGCTLDGDLDTVVARVVAAAGEAL | failed
4 | MLMVFALLVSLAFASYHPDDAVVLRSADWSEVVLNPQSAQADGPVQNVLGLLGAQLAEACVPGFIGYGVLLISGLLMVWGYAVFRHASLRRLLYPSLLTAFSAFILSCVVGWVHHTVDAPLRAWAGLVGIGTAGWMQNVFGEVGSFILLLLAGAVLLLLVVDHDIQRTVDRVIRAARRIGAGVSAAGAYIRDQWSRARAHAPEPKATSPASDPSSSASASGSPSASSPEPPSSPPAEESTSSPPPARTRPEDSGAQTPSVRRNDLFRPGRDPAPSATDDNTASPEPAPDSSARTSDADPPEDDAPKDIPDETTASTPAEESPATDSPPPSRPADENASSDEPAAPAPDEPPPDASDGPDDDVSMTIQEQVEEETTDEIERTAELPDDFEYEPPSLDLLDESVDTDPTINREELEENKRVLLDKLDMYNIEIEEINAVVGPTVTRYELTPAPGIKVSRIKSLEDDLAMAMAAPGIRMIAPIPGKSAVGVEIPNRNRELVRLRDVIGTRKFQDTDLKLPLPLGKNIEGEVHVGDLATMPHLLIAGATGSGKSVGLNSIITGLIYACHPANLRFVIIDPKKIELQQYTALETQFVAVPEDIDQTVITDIDEASGVLKSVEREMETRYDLLSDASVRNITGYNEKFQAGELDPTEGHRHMPYLVVVVDELADLMMAAGDDVEGPISRLAQMARAVGIHLILATQRPSVDVVTGVIKANFPSRIAFEVASRVDSRTILDQGGAEDLVGNGDMLFLSGSDLKRLQGPFVSVEEVEEVVDYVADQPGVTPYTLPSLQDAGHGPDETLGVEDTDEKFEEAARVIVRRQQGSVSLLQRKLAVGYTRAARIVDQLEEAGIVGPFNGTKARDVLVDDEQALDDLLHGEDADEADPEEA | failed
5 | MLNALKNRLRVWYDPEMKAIARIIREMNSKGGDDLVVTECNKVFVDRLRVFPIALKMDFWEHHFELEGFSDFPEIGGDILDFGCGSGHLDVYLARRGFTVTGVDLSPVGIAIASFIRENEAADVKKRLLFFVADVTADLPPRQFDAAWSAHVFEHIKNPGPVLAGLKNWIKPGGSLLISVPFGRAYDDPGHVNHFYSEADLQHYLGGHISVERIKIYRDHQVIRALCKNDGDGKNDR | failed
6 | MLNFKTFSDLRPKKTRAFVFVKILRLWNWPPNYFGEEPTMILVDEKGHRIDAKSSRHAYKEEMISTLREGKWYILSNFKVVVANPLERFSTHVFQIEFLKKTTMEPVTPKSRYHFIECVDFHTIKHAAPIQKKFVVDAMGVIESVSPIGKIPWVARDWESDFASRYLVFTLKDSMHKYIKCVAVGSSCEEFERKWYKKISEPNFKMEPVMIILRFWKISEFEGKPCLISVYGCSKVHIDPNFRGIDKNNYL | failed
7 | MLNKVNLADIRSFVLIAQLGNFTKAAEALSVSRSHVSRQISGLEAQMGVTLLNRTTRTLRLTHAGERFYHDCEKALRDIDQALIAAVDDTQEIRGVIRVNCVGGYIGEDIIAKYVCEFMQQYPNVSIDLDFSSPRIDLIEDQFDVAFRMGELDDAGFVARKLMTVDMVTLASPSYVQQYGMPIHPKELAEHRTLTGSVARWSYRKADNPNDHTDVVVKGNLRCKNGRALVMGALHGNGIIRVPLSYCAEEVELGQLIKVMPNWEIPSVPFSAIFHRDRYQPKRLRTFIDFIKQKFEDS | failed
8 | MLNMQRLQTVLLQCAGWLLYMSLLMLIALALPADIFDSQSKHFIFLVGAVGIWRYSMGATHFIRGMIFLYGVYPYLRRKVQKMGNATDPSHVYLMVTSFRIEALTTAQVYSSVIREAINCGFPTTVVCSLVEMSDELLVKSLWAKYNPPAHVKLDIVRIAGTGKRDGLAYGFRAISRMLPDENAVVAVIDGDTVLADGVVRKTVPWFKLFPNVGGLTTNEFCEVRGGYIMSEWHKLRFAQRHINMCSMALSKRVLTMTGRMSMFRASVVTNPEFIADVESDSLMHWRLGRFKFLTGDDKSSWFSLMRLGYDTFYVPDAAINTVEHPPEKSFLKASRKLMYRWYGNNLRQNSRALGLGLRRLGLFTSIVLFDQRVSMWTSLLGLTVAVIASLKFGMAFLLVYLLWIGITRLILTIMLLCSGHNVGPAYPLILYYNQIIGALMKIYVFFRLDKQSWTRQPTALKRDLASFQQWFNTWSSRTMTFSAASIFVAVLFMVV | failed
9 | MLNRVFLEGEIESSCWSVKKTGFLVTIKQMRFFGERLFTDYYVIYANGQLAYELEKHTKKYKTISIEGILRTYLERKSEIWKTTIEIVKIFNPKNEIVIDYKEI | not failed
10 | MLNSHPKKTQSLYRAGLVVLQITESLLILALLYQAINKLIFINNYSIKFMLTFILYSPEFFMANLTTYYFIYEKFKILHSIIVITKLFQIILTLLLFILGFIFKIYVYQTSLAIILGITVVYLVFNVTILVLIKAKIKNLE | failed
11 | MLNYRQLHYFWVVAKTGSIVRACEQLNLTAQTVSGQISLLEAALGVDLFQRVGRRLEMTEAGRLALPYAEQMFQLGDELESLLRSQPDEQQLLLRIGVADVVPKSIVYRLIAPTMELAEPIRITCREDKLERLLADLAIQRLDLVISDSPMPPHLDIKGYSQKLGECGVTFFATREVAERVGSDFPQCLHGAPLLIPGQETVVRGRLMRWFAEQKIQPRIIGEFDDSALMKAFGKSGSGIFVAPSVIVDEVQGQYGVQVIGQTDAVTESFYAITVERKVRHPGVVAIAESARNQLFTDAG | failed
12 | MLPAEYNVLVDYTGASTFTTFFFLLFFYVLDCYNVGHEDVRDSIARVSVASVLGIIFTGFTFYSFEHWRFERTTFVVLLLLVVGMTLLWRMVYHRFGQRFTTRPRVVLVGVDRAGRVRKLLNEGMPEAEILGYVGEGDVDPDAGPCLGAPYEPVEIARRYGATMLVMLPDAPVDEDIARDLLDAKLRGLMVVDIRTLYEHVAKRIPVDQIRDEWLLTEDGFNLNTQGSVRRLKRAFDVIVSLSLLITTAPIMLVAAIAIRMESPGPVIYRQKRVGINEQEFMVLKFRSMRTDAEKDGAVWATKGDSRVTRVGRFIRKVRIDELPQLWNVLRGDMSMIGPRPERMEFVRQLEKVIPYFYVRHSVKPGITGWAQVCYPYGASVEDARYKLEYDLYYIKNMSPLLDIQIVLKTVGVILFPKGAR | failed
13 | MLPDSSVRLNKYISESGICSRREADRYIEQGNVFLNGKRATIGDQVKPGDVVKVNGQLIEPREAEDLVLIALNKPVGIVSTTEDGERDNIVDFVNHSKRVFPIGRLDKDSQGLIFLTNHGDLVNKILRAGNDHEKEYLVTVDKPITDEFIRGMGAGVPILGTVTKKCKVKKEAPFVFRITLVQGLNRQIRRMCEHFGYEVKKLERTRIMNVSLSGIPLGEWRDLTDDELIDLFKLIENSSSEAKPKAKAKPKTAGIKRPVVKMEKTAEKGGRPASNGKRFTSPGRKKKGR | not failed
14 | MLPDVQLLKPEVPIGLSRVGATGIKKLVEVQREGKRPIILISTFDVFVDLPAHLKGVNLSRNFEVIDEVLETLTAKPIENIEDLVVEIADHLLKRHEYATKAEARMNSELIMRKRTPKTGQRTQEVVKIFGEATLGRDGSKVIMVGVEVTGITACPCAQELVKASSAERLAKMGFDEETIQKILDAIPVATHNQRGRATLKVQVTDSFKVPIAKLIDVAKSSMSYETYEILKREDELAVVEAAHRNTRFVEDGVRYMAMELLKTFPNAPDDILVFLRQENEESIHQHNVVAERFA | failed
15 | MLPGVGVFGTSLTARVIIPLLKDEGFAVKALWGRTQEEAEELAKEMSVPFYTSRIDEVLLHQDVDLVCINLPPPLTRQIAVKTLGIGKNVICDRTATPLDAFRMTSAAHYYPKLMSIMGNVLRFLPAFVRMKQLIEEGYVGEPLVCEVQVHGGSLLGKKYNWSCDDLMGGGGLHSVGTYIIDLLTFLTGQKAVKVHGLLKTFVKQTDHIKGIRQITSDDFCTFQMVLEGGVCCTVTLNFNVPGEFKQDVTVVGSAGRLLAVGTDLYGQRNSAPEQELLVQDATPVSNSLLPEKAFSDIPSPYLRGTIKMMQAVRQAFQDQDDRRTWDGRPLTMAATFDDCLYALCVVDTIKRSSQTGEWQNIAIMTEEPELSPAYLISEAMRRSRMSLYC | failed
16 | MLPLSLLKTAQGHPMLVELKNGETYNGHLVNCDTWMNIHLREVICTSKDGDRFWRMPECYIRGNTIKYLRVPDEVIDKVQEEKTRTDRKPPGVGRGRGRGVDDGGARGRGRGTSMGKMGGNRGAGRGRG | failed
17 | MLPPGMVAAESDFYLRRLWGLPHEDLKSEPRYLATFTVGINQKANIDACVKKFSENFTIVLFHYDGRVTEWDEFEWSKTAIHISVRKQTKWWYAKRFLHPDIVARYDYIFVWDEDLGVEHFNAEEYVKMVKKHGLEISQPGLEPNQGLTWQMTKRRGDMEVHKITEERPGWCSDPHLPPCAAYVEIMAPVFSRNAWRCVWHVIQNDLVHGWGLDFALRRCVEPAHEKIGVVDSQWVVHQSFPSLGNQGEATDGKAPWQGVRDRCKKEWTMFQSRMANAEKDYFKSLQVEGSSNSTATTI | failed
18 | MLPQILIVILSLIEGLDPYKGLLFSYYFYSFKKVKESFVVPLLSTLSYYSLGILVVFFTFSSLQSSNSTKVIVIFLVIIHILMKMFLGKLLHYTGSMRVSVYNLVKSTFLNSILQMNVILLIILAIIVNTLFVFLPVGVFIVREVTYFIVLKKNNVLVLLTKFNFDYIYSVTLLILALAVLLQS | failed
19 | MLPRVHRVRRGGTVYKYHRRTRKELPRDVPEDDPRFVAAWLAEEQRAPTVRSRSQAGTIAAACEAYLGSRSYRELSDGYRPVIRRHVERIKEQGEKALLKDLLPRHIRADLEPLSPPVASSRLKAWRKLAEFWLLKGMLDADPSEGVKRKKMGKVAGFTEWTAEDLEAFRARWPIGTAQRLALELYQWTGARCVDVIRLGPQMVGRDGVLTYVQQKTGNPAHVPWTCPAFGLEEQRADLMRCLPVGSPVYMLTEYGKPRTQKGVSQWFSAAAREAGLESRTAHGLRKYRMNALAEHGASVLVMQSWVGHTTLLEVQEYTRRADRRRVISGGHPVKRDPAGA | failed
20 | MLPSESTLLTNATILTGTGERINNGDILLVNGKVTQVGNNLSVEQATVIDMKGKWITPGIIDVHSHLGVYPNPEVLEHHHHHH | not failed
21 | MLPVASLLILVPLIFAVVTFFTKTKQLAAGFGFLGSLATLGLTLYAYLNFDSSTAAMQFYESVSWIPFLGVNYSVGIDGVSMPLILLNAIVIPFMILFTWKEEMESPNRFYGLILTMQAAVIGVFVALDFVVFYIFWELTLVPLFFIVNLWGGANRAHASYKFFIYTHVASLVMLLGIFGLFYTALNQTGVPTFDIRELIAQFQFFEPGLMKDGIFLAILFGFLAKLPAFPFHSWLPDAYSEAPTAGSILFILLKIGGYGLFRISLPMLPNTGSPQLMIMILGLLGSVSILYGALLALRQKDLKRMIAYSSLSHMGYVILGSAGLVTLSVSGAMFQQFSHGLIMSIMFMSAGAIQTAAGTRIINELGGLAKKMPMLTVAMMVGFMASLGLPGLTGFIAEFLVLTFTFTNLPVFVVIALLAIVVTAGYHLWAMQRAMFGVYNEKLGDVRDINSIQVFSMAVIALLVLYFGLNPSPVLDMMINNSEAIVSLAAGMGV | failed
